Experimental data reported in paper PMC6425953 (Cell reports, 2019).

B1: GST-Rng10(751–1,038) (domain or fragment)
chain: SNSKAPAIEETTTTKVEVVAAHDAVSISSNSSTHKSHSEPLNRDELEVAALSRGSLPEPPKPNKQIVVQEEDQRDTLSLKTSTTGLSSHSKSAENNSTQQSTTSPSINSGASADAVSSGISKKADNSETNLNYFATLDAFVKSPLMSFDGLGELGSTDQRYNFFNQKIQEYSAYDSGLDNWIQFCLEKDGEAPKEAPPPPRSEPVSTTTKLAKRITQPSLSPARSTVTITHNIATEAKKKSKSAANDILHLFKKKAKSEQSNAKSSSSSIKESKKMKTLFGKKLGFKS
B2: GST-Rng10(751–950) (domain or fragment)
chain: SNSKAPAIEETTTTKVEVVAAHDAVSISSNSSTHKSHSEPLNRDELEVAALSRGSLPEPPKPNKQIVVQEEDQRDTLSLKTSTTGLSSHSKSAENNSTQQSTTSPSINSGASADAVSSGISKKADNSETNLNYFATLDAFVKSPLMSFDGLGELGSTDQRYNFFNQKIQEYSAYDSGLDNWIQFCLEKDGEAPKEAPPPP
B3: His6-Rga7(1–320) (domain or fragment)
chain: MLSAPSSSTTPASPPTSPPNTTSSDDFAVLKEPKVEAILNSELGLAILNDRIKDYLLTCKELAGFFKKRSILEEESGKNLQKLAKSYLETFQSKHHSPQSFSASVITSMEIHEQLANHSLTLQKTLSAFSDQVIEFHKNAERKRKSIKEYAKKQENAYLEAVMQMDKSKSRFKGAETEYNRALDNKNTGDSQKKVGFFKPKSNAQLTKLEDEARLKAENAESDMHSKIENAQNVQKQLLCIHRPNYIKQFFSLQREIESSLIANYLRYTKLCESNTLLNGLTIRPQKPTPTNCGLQHALDNINANTDFVQYVLHASIKHE

Tests used:
His6-Rga7(1–320) = target: B3; test: supernatant depletion assay
AUC = target: the molecule itself; test: AUC

Binder | Kd (His6-Rga7(1–320)) | stoichiometry N (AUC)
B1 | 430 nM | 
B2 | 690 nM | 
B3 |  | 2
